{
  "source": "patent US20100111970A1",
  "about": "(published 2010)",
  "key": {"[1]": {"biological_target": "T1, human nerve growth factor (NGF) (human, UniProt P01138 122-241)", "T1 construct": "Immobilized on CM5 chip in BIAcore assays; also called human NGF; hNGF", "T1 sequence (P01138 122-241 limits assumed)": "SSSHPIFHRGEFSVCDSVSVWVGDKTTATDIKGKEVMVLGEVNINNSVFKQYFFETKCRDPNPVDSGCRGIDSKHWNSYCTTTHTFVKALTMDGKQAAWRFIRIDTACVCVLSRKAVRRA", "test": "BIAcore SPR; KD calculated from koff using kon 4e4 M^-1s^-1", "procedure": "(§1) Affinities of anti-NGF Fabs and monoclonal antibodies were determined using the BIAcore3000™ surface plasmon resonance (SPR) system (BIAcore, INC, Piscaway N.J.). CM5 chips were activated with N-ethyl-N′-(3-dimethylaminopropyl)-carbodiinide hydrochloride (EDC) and N-hydroxysuccinimide (NHS) according to the supplier's instructions. Human NGF was diluted into 10 mM sodium acetate pH 4.0 and injected over the activated chip at a concentration of 0.005 mg/mL. Using variable flow time across the individual chip channels, two ranges of antigen density were achieved: 100-200 response units (RU) for detailed kinetic studies and 500-600 RU for screening assays. The chip was blocked with ethanolamine. […] HBS-EP buffer (0.01M HEPES, pH 7.4, 0.15 NaCl, 3 mM EDTA, 0.005% Surfactant […]) was used as running buffer for all the BIAcore assays.\n(§2) For affinity screening experiments, each library was further paired with the corresponding CDR-grafted light or heavy chain (for example, the H1/H2 library was paired with CDR-grafted light chain), the antibody was expressed, and affinity to human NGF of the individual clones was screened using the BIACORE surface plasmon resonance (SPR) system (BIAcore, Inc. Piscataway, N.J.) according to the manufacturer's instructions and as described above. koff, kₒₙ and KD were determined. […]"}, "[2]": {"biological_target": "T1, human nerve growth factor (NGF)", "test": "BIAcore SPR screening of Fab clones on immobilized human NGF", "procedure": "as §1, §2"}},
  "data": [
    {"binder": "light chain library clone L81 (Fab, V domains shown, Substitutions derived by comparing printed CDRs with the 8L2-6D5 control) VH: QVQLQESGPGLVKPSETLSLTCTVSGFSLIGYDINWIRQPPGKGLEWIGMIWGDGTTDYNSALKSRVTISKDTSKNQFSLKLSSVTAADTAVYYCARGGYYYGTSYYFDYWGQGTLVTVS VL: DIQMTQSPSSLSASVGDRVTITCRAFQAISNQLNWYQQKPGKAPKLLIYYTSRFHTGVPSRFSGSGSGTDFTFTISSLQPEDIATYYCQQSKTLPYTFGQGTKLEIKR", "values": [
      {"measurement": "Kd", "setting": "[1]", "value": 18, "unit": "nM"},
      {"measurement": "koff", "setting": "[2]", "value": 0.00074, "unit": "s⁻¹"}
    ]}
  ]
}
